# Test results reported in US20070077628A1.
# T1: Flag-tagged Tsg101, wild type (UniProt Q61187)
# T1 sequence: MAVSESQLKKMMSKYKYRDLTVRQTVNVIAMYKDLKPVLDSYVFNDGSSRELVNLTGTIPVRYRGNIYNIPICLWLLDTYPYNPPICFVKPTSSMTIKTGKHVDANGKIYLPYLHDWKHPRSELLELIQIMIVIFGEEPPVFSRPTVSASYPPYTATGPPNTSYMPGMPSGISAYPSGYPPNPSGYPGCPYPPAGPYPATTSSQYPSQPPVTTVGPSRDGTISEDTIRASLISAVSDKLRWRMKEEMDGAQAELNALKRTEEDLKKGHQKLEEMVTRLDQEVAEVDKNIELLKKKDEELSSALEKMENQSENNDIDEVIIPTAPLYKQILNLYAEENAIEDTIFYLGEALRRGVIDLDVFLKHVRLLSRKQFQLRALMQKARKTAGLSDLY
# T2: Flag-tagged Tsg101, wild type (murine) (UniProt Q61187)
# T2 sequence (looked up): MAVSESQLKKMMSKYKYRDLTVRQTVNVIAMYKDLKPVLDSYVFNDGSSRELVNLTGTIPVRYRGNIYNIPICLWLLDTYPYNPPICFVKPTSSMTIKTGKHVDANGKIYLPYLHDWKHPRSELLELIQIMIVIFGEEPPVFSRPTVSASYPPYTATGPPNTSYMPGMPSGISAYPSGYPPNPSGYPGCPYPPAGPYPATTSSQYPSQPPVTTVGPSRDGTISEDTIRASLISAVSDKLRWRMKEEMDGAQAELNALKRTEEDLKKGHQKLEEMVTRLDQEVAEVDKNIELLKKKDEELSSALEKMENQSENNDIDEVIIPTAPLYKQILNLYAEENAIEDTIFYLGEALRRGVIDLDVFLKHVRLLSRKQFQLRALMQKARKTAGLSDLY
# T3: endogenous Tsg101 of HEK-293T cells, Q99816
# T3 chain: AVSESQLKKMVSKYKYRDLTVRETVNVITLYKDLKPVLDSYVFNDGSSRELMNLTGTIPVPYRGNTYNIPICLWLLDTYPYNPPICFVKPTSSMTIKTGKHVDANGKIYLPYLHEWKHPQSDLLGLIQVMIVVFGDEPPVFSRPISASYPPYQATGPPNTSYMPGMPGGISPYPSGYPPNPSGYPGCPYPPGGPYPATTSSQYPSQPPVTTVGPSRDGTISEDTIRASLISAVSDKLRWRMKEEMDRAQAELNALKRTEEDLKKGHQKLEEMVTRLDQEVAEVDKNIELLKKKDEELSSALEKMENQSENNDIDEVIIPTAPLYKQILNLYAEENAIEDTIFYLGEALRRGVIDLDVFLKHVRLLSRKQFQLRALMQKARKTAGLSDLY
# T4: Flag-tagged Tsg101, wild type, Q61187
# T4 chain: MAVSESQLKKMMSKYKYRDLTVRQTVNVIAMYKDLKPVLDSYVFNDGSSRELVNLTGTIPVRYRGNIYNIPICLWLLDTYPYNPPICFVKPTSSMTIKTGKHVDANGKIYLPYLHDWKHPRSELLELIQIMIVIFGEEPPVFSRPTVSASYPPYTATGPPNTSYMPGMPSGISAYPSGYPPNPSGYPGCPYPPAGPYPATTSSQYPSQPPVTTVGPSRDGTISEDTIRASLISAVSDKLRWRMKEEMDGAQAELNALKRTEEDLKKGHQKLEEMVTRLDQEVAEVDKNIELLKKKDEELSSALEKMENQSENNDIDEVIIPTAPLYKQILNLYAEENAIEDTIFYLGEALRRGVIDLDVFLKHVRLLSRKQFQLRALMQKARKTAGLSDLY
# Legend:
# [1] = target: T1, Flag-tagged Tsg101, wild type
# [2] = target: T2, Flag-tagged Tsg101, wild type (murine); test: cell-based or functional assay
# [3] = target: T3, endogenous Tsg101 of HEK-293T cells, …
# [4] = target: T4, Flag-tagged Tsg101, wild type, Q61187
Molecule,in vitro ubiquitylation of immunoprecipitated Tsg101 (125I-ubiquitin) [1],"HIV-1 infectivity, single-cycle infection assay [3]",also measured
C675A-hTa1 (HA-tagged),only background ubiquitylation was observed with two RING mutants of hTa1,,
H695A-Ta1 (HA-tagged),only background ubiquitylation was observed with two RING mutants of hTa1,,
"HA-tagged human Ta1, wild type (enzyme, not shown: small tags and cut ends) MPLFFRKRKPSEEARKRLEYQMCLAKEAGADDILDISKCELSEIPFGAFATCKVLQKKVLIVHTNHLTSLLPKSCSLLSLATIKVLDLHDNQLTALPDDLGQLTALQVLNVERNQLMQLPRSIGNLTQLQTLNVKDNKLKELPDTVGELRSLRTLNISGNEIQRLPQMLAHVRTLEMLSLDASAMVYPPREVCGAGTAAILQFLCKESGLEYYPPSQYLLPILEQDGIENSRDSPDGPTDRFSREELEWQNRFSDYEKRKEQKMLEKLEFERRLELGQREHTQLLQQSSSQKDEILQTVKEEQSRLEQGLSEHQRHLDAERQRLQEQLKQTEQNISSRIQKLLQDNQRQKKSSEILKSLENERIRMEQLMSITQEETESLRRRDVASAMQQMLTESCKNRLIQMAYESQRQNLVQQACSSMAEMDERFQQILSWQQMDQNKAISQILQESAMQKAAFEALQVKKDLMHRQIRSQIKLIETELLQLTQLELKRKSLDTESLQEMISEQRWALSSLLQQLLKEKQQREEELREILTELEAKSETRQENYWLIQYQRLLNQKPLSLKLQEEGMERQLVALLEELSAEHYLPIFAHHRLSLDLLSQMSPGDLAKVGVSEAGLQHEILRRVQELLDAARIQPELKPPMGEVVTPTAPQEPPESVRPSAPPAELEVQASECVVCLEREAQMIFLNCGHVCCCQQCCQPLRTCPLCRQDIAQRLRIYHSS",,overexpression of hTa1 reduces infectivity by approximately 40%,"decrease in GFP-Gag secretion into virus-like particles (VLPs), HEK-293T cells [2]: > 90%; HIV-1 infectivity, single-cycle infection assay [4]: when combined with an ectopic Tsg101, hTa1 exerted a significantly greater inhibitory effect; in vitro ubiquitylation of immunoprecipitated Tsg101 (125I-ubiquitin) [4]: Substantial Tsg101 ubiquitylation was observed in complexes pre-incubated with WT-hTa1"
ΔCC-hTa1 (HA-tagged hTa1 with the coiled-coil deleted) (protein) MPLFFRKRKPSEEARKRLEYQMCLAKEAGADDILDISKCELSEIPFGAFATCKVLQKKVLIVHTNHLTSLLPKSCSLLSLATIKVLDLHDNQLTALPDDLGQLTALQVLNVERNQLMQLPRSIGNLTQLQTLNVKDNKLKELPDTVGELRSLRTLNISGNEIQRLPQMLAHVRTLEMLSLDASAMVYPPREVCGAGTAAILQFLCKESGLEYYPPSQYLLPILEQDGIENSRDSPDGPTDRFSREELEWQNRFSDYEKRKEQKMLEKLEFERRLELGQREHTQLLQQSSSQKDEILQTVKEEQSRLEQGLSEHQRHLDAERQRLQEQLKQTEQNISSRIQKLLQDNQRQKKSSEILKSLENERIRMEQLMSITQEETESLRRRDVASAMQQMLTESCKNRLIQMAYESQRQNLVQQACSSMAEMDERFQQILSWQQMDQNKAISQILQESAMQKAAFEALQVKKDLMHRQIRSQIKLEELSAEHYLPIFAHHRLSLDLLSQMSPGDLAKVGVSEAGLQHEILRRVQELLDAARIQPELKPPMGEVVTPTAPQEPPESVRPSAPPAELEVQASECVVCLEREAQMIFLNCGHVCCCQQCCQPLRTCPLCRQDIAQRLRIYHSS,,RING or CC mutants of hTa1 potently inhibited HIV-1 infectivity even in the absence of an ectopic Tsg101,
Ta1 ΔPTAP/PSAP (HA-tagged hTa1 with the PTAP motifs deleted) (protein) MPLFFRKRKPSEEARKRLEYQMCLAKEAGADDILDISKCELSEIPFGAFATCKVLQKKVLIVHTNHLTSLLPKSCSLLSLATIKVLDLHDNQLTALPDDLGQLTALQVLNVERNQLMQLPRSIGNLTQLQTLNVKDNKLKELPDTVGELRSLRTLNISGNEIQRLPQMLAHVRTLEMLSLDASAMVYPPREVCGAGTAAILQFLCKESGLEYYPPSQYLLPILEQDGIENSRDSPDGPTDRFSREELEWQNRFSDYEKRKEQKMLEKLEFERRLELGQREHTQLLQQSSSQKDEILQTVKEEQSRLEQGLSEHQRHLDAERQRLQEQLKQTEQNISSRIQKLLQDNQRQKKSSEILKSLENERIRMEQLMSITQEETESLRRRDVASAMQQMLTESCKNRLIQMAYESQRQNLVQQACSSMAEMDERFQQILSWQQMDQNKAISQILQESAMQKAAFEALQVKKDLMHRQIRSQIKLIETELLQLTQLELKRKSLDTESLQEMISEQRWALSSLLQQLLKEKQQREEELREILTELEAKSETRQENYWLIQYQRLLNQKPLSLKLQEEGMERQLVALLEELSAEHYLPIFAHHRLSLDLLSQMSPGDLAKVGVSEAGLQHEILRRVQELLDAARIQPELKPPMGEVVPAELEVQASECVVCLEREAQMIFLNCGHVCCCQQCCQPLRTCPLCRQDIAQRLRIYHSS,,mediated a relatively mild effect on viral infectivity,
